Reference: the supplement of paper PMC7125110
± gives the standard error. This sample holds only a part of the variants without activity.

B1: glmS ribozyme (parent)
chain: AUAAAAGCGCCAGAACUACAGAAAUGUAGUUGACGAGGAGGAGGUUUAUCGAAUUUUCGGCGGAUGCCUCCAAA

What was measured:
Settings in all cases: with glucosamine-6-phosphate
glucosamine-6-phosphate [1] = variants of: B1; assay: self-cleavage kobs at 160 uM GlcN6P; higher = faster cleavage; RNA array
Outline: (§1)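 kobs was derived by fitting per-tile medians to one- or two-exponential decays after normalising signals to baseline and to non-cleaving reference variants. Those signals came from barcoded ribozyme variants transcribed in situ by E. coli RNA polymerase on sequenced MiSeq chips, followed through a hybridised Cy3 probe at 37 °C and imaged over ~14 h. Glucosamine-6-phosphate (40 μM to 10 mM) in HEPES/KCl/Mg(OAc)2 buffer was flowed in. Weighted Michaelis–Menten fits across concentrations then gave kcat and KM.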

glucosamine-6-phosphate [2] = variants of: B1; assay: self-cleavage kobs at 640 uM GlcN6P; higher = faster cleavage; RNA array
Outline: as §1

glucosamine-6-phosphate [3] = variants of: B1; assay: self-cleavage kobs at 2500 uM GlcN6P; higher = faster cleavage; RNA array
Outline: as §1

glucosamine-6-phosphate [4] = variants of: B1; assay: self-cleavage kobs at 10000 uM GlcN6P; higher = faster cleavage; RNA array
Outline: as §1

Variant	self-cleavage kobs at 160 uM GlcN6P (glucosamine-6-phosphate [1])	self-cleavage kobs at 640 uM GlcN6P (glucosamine-6-phosphate [2])	self-cleavage kobs at 2500 uM GlcN6P (glucosamine-6-phosphate [3])	self-cleavage kobs at 10000 uM GlcN6P (glucosamine-6-phosphate [4])
G7A G62C C67G	< 1e-05 s⁻¹	< 1e-05 s⁻¹	< 1e-05 s⁻¹	–
A36U U56C	< 1e-05 s⁻¹	< 1e-05 s⁻¹	–	< 1e-05 s⁻¹
A6G G7U C34G	< 1e-05 s⁻¹	< 1e-05 s⁻¹	< 1e-05 s⁻¹	–
C16A A33G	< 1e-05 s⁻¹	–	–	< 1e-05 s⁻¹
C50U U56A	< 1e-05 s⁻¹	–	–	–
A33G G41U C50U C71U	< 1e-05 s⁻¹	< 1e-05 s⁻¹	–	–
A33C G35A G51C	< 1e-05 s⁻¹	< 1e-05 s⁻¹	< 1e-05 s⁻¹	–
A15G C16G A33C U49G A53U	< 1e-05 s⁻¹	< 1e-05 s⁻¹	–	–
A12U U69C	0.000492 ± 0.00017 s⁻¹	0.00151 ± 0.00069 s⁻¹	0.00211 ± 0.00066 s⁻¹	–
G9A A48U	< 1e-05 s⁻¹	< 1e-05 s⁻¹	< 1e-05 s⁻¹	–
A42C A64U	< 1e-05 s⁻¹	< 1e-05 s⁻¹	< 1e-05 s⁻¹	< 1e-05 s⁻¹
G44U C50U C71A	< 1e-05 s⁻¹	< 1e-05 s⁻¹	–	–
G26U C50G C68U	0.000155 ± 5.5e-05 s⁻¹	–	–	–
U30C A42U U49A	< 1e-05 s⁻¹	< 1e-05 s⁻¹	< 1e-05 s⁻¹	–
G32U C50G	5.71e-05 ± 2e-05 s⁻¹	–	–	–
C11A A12U	7.68e-05 ± 1.8e-05 s⁻¹	0.000339 ± 6e-05 s⁻¹	0.000539 ± 7.7e-05 s⁻¹	0.00156 ± 0.00028 s⁻¹
C10U C34G	< 1e-05 s⁻¹	< 1e-05 s⁻¹	< 1e-05 s⁻¹	< 1e-05 s⁻¹
C11U A42U C68A	< 1e-05 s⁻¹	–	< 1e-05 s⁻¹	–
A6U A42C	< 1e-05 s⁻¹	–	< 1e-05 s⁻¹	< 1e-05 s⁻¹
G7U U45A	< 1e-05 s⁻¹	–	< 1e-05 s⁻¹	–
C11A G41U C58U	< 1e-05 s⁻¹	< 1e-05 s⁻¹	–	–
A6G G32U C50G U57G C61A G66U	0.000258 ± 4.1e-05 s⁻¹	–	0.000553 ± 9.8e-05 s⁻¹	9.54e-05 ± 1.9e-05 s⁻¹
G7A U30C C61A C67U	< 1e-05 s⁻¹	–	–	–
A42U A53G A64C	< 1e-05 s⁻¹	< 1e-05 s⁻¹	–	–
G9U C58U	< 1e-05 s⁻¹	< 1e-05 s⁻¹	< 1e-05 s⁻¹	–

Variant	self-cleavage kobs at 160 uM GlcN6P (glucosamine-6-phosphate [1])	self-cleavage kobs at 640 uM GlcN6P (glucosamine-6-phosphate [2])	self-cleavage kobs at 2500 uM GlcN6P (glucosamine-6-phosphate [3])	self-cleavage kobs at 10000 uM GlcN6P (glucosamine-6-phosphate [4])
A12G G59C G63C C67A	< 1e-05 s⁻¹	< 1e-05 s⁻¹	< 1e-05 s⁻¹	–
U30A G41C U49A	< 1e-05 s⁻¹	< 1e-05 s⁻¹	< 1e-05 s⁻¹	< 1e-05 s⁻¹
A39C U65A C71G	< 1e-05 s⁻¹	< 1e-05 s⁻¹	< 1e-05 s⁻¹	–
A36U C61U A64G	< 1e-05 s⁻¹	< 1e-05 s⁻¹	–	–
G29C U69A	4.08e-05 ± 1.4e-05 s⁻¹	8.01e-05 ± 1.7e-05 s⁻¹	2.32e-05 ± 1e-05 s⁻¹	–
G13C A42G G51C U56C C67A	< 1e-05 s⁻¹	–	< 1e-05 s⁻¹	–
A39G G62U	< 1e-05 s⁻¹	< 1e-05 s⁻¹	< 1e-05 s⁻¹	–
A6C G66C	< 1e-05 s⁻¹	< 1e-05 s⁻¹	–	–
A12U A42U G44U C67G	3.69e-05 ± 1.5e-05 s⁻¹	0.000122 ± 3.2e-05 s⁻¹	0.000326 ± 9.4e-05 s⁻¹	–
G32U G51U G66A	< 1e-05 s⁻¹	< 1e-05 s⁻¹	–	–
G7U G35A G59C	< 1e-05 s⁻¹	–	< 1e-05 s⁻¹	–
G9U A12G G29A U56A	< 1e-05 s⁻¹	< 1e-05 s⁻¹	< 1e-05 s⁻¹	–
G13C U46C	< 1e-05 s⁻¹	< 1e-05 s⁻¹	–	–
U30A A53U C70U	0.000167 ± 4.8e-05 s⁻¹	0.000821 ± 0.0002 s⁻¹	–	–
G29A G62A	< 1e-05 s⁻¹	< 1e-05 s⁻¹	< 1e-05 s⁻¹	–
A6G G40U U54A	< 1e-05 s⁻¹	< 1e-05 s⁻¹	–	–
A53U G62U A64U	< 1e-05 s⁻¹	< 1e-05 s⁻¹	< 1e-05 s⁻¹	–
U17G	0.00191 ± 0.00076 s⁻¹	0.00535 ± 0.0016 s⁻¹	–	–
U30G U31C A33U U45A U55A	< 1e-05 s⁻¹	–	–	–
G35A U57A	< 1e-05 s⁻¹	< 1e-05 s⁻¹	< 1e-05 s⁻¹	< 1e-05 s⁻¹
U30A G59U C61U	< 1e-05 s⁻¹	< 1e-05 s⁻¹	–	–
C34U U49G	< 1e-05 s⁻¹	–	< 1e-05 s⁻¹	< 1e-05 s⁻¹
G35A C68U C70G	< 1e-05 s⁻¹	< 1e-05 s⁻¹	< 1e-05 s⁻¹	–
G38U A39G G41C A42U U57C	< 1e-05 s⁻¹	–	–	–
C16U G29C C50G	0.000111 ± 3.4e-05 s⁻¹	–	6.6e-05 ± 2.7e-05 s⁻¹	–
